{
  "source": "paper PMC6570770",
  "about": "“In situ structure and assembly of the multidrug efflux pump AcrAB-TolC” (Nature Communications, 2019)",
  "target": "the molecule itself",
  "assay": "cryo-EM structure",
  "data": [
    {"protein": "AcrA (periplasmic adaptor protein of the AcrAB-TolC multidrug efflux pump) (natural protein, also called periplasmic adaptor protein AcrA; source: E. coli BL21 (DE3), overexpressed from plasmid pAcBH (acrAB locus), in intact cells) CDDKQAQQGGQQMPAVGVVTVKTEPLQITTELPGRTSAYRIAEVRPQVSGIILKRNFKEGSDIEAGVSLYQIDPATYQATYDSAKGDLAKAQAAANIAQLTVNRYQKLLGTQYISKQEYDQALADAQQANAAVTAAKAAVETARINLAYTKVTSPISGRIGKSNVTEGALVQNGQATALATVQQLDPIYVDVTQSSNDFLRLKQELANGTLKQENGKAKVSLITSDGIKFPQDGTLEFSDVTVDQTTGSITLRAIFPNPDHTLLPGMFVRARLEEGLNPNAILVPQQGVTRTPRGDATVLVVGADDKVETRPIVASQAIGDKWLVTEGLKAGDRVVISGLQKVRPGVQVKAQEVTADNNQQAASGAQPEQSKS", "values": [
      {"measurement": "stoichiometry N", "result": 6}
    ]}
  ]
}
